From article doi:10.1101/2021.08.20.457142

B1: MKK6 D-site peptide / p38-alpha (MAPK14) L195A, full length (parent complex)
chain 1: SQSKGKKRNPGLKIPKEAFEQP
chain 2: MSQERPTFYRQELNKTVWEVPERYQNLSPVGSGAYGSVCAAFDTKTGHRVAVKKLSRPFQSIIHAKRTYRELRLLKHMKHENVIGLLDVFTPARSLEEFNDVYLVTHLMGADLNNIVKCQKLTDDHVQFLIYQILRGLKYIHSADIIHRDLKPSNLAVNEDCELKILDFGLARHTDDEMTGYVATRWYRAPEIMANWMHYNQTVDIWSVGCIMAELLTGRTLFPGTDHIDQLKLILRLVGTPGAELLKKISSESARNYIQSLAQMPKMNFANVFIGANPLAVDLLEKMLVLDSDKRITAAQALAHAYFAQYHDPDDEPVAEPYDQSFESRDFLIDEWKSLTYDEVISFVPPPLDQEEMES

Variants of: B1

| Variant | screen value |
| --- | --- |
| chain 1 SQSAGKKRNPGLAIPKEAFEQP [chain 1 K4A, chain 1 K13A] | -0.724 Z-score of the enrichment rate within one screen of 711 sequences |
| chain 1 SQAKGKARNPGLKIPKEAFEQP [chain 1 S3A, chain 1 K7A] | 0.46 Z-score of the enrichment rate within one screen of 711 sequences |
| chain 1 SQSKGKKRNAGLAIPKEAFEQP [chain 1 P10A, chain 1 K13A] | -0.927 Z-score of the enrichment rate within one screen of 711 sequences |
| chain 1 SQSKGKKAAPGLKIPKEAFEQP [chain 1 R8A, chain 1 N9A] | -0.113 Z-score of the enrichment rate within one screen of 711 sequences |
| chain 1 SQSKGAKRNPGLKIAKEAFEQP [chain 1 K6A, chain 1 P15A] | 1.01 Z-score of the enrichment rate within one screen of 711 sequences |
| chain 1 SQSKGKKANAGLKIPKEAFEQP [chain 1 R8A, chain 1 P10A] | -0.354 Z-score of the enrichment rate within one screen of 711 sequences |
| chain 1 SQSKAKKRNPGLAIPKEAFEQP [chain 1 G5A, chain 1 K13A] | -0.263 Z-score of the enrichment rate within one screen of 711 sequences |
| chain 1 SQSKAKKRNPALKIPKEAFEQP [chain 1 G5A, chain 1 G11A] | 1.18 Z-score of the enrichment rate within one screen of 711 sequences |
| chain 1 SQSKGKARNPGLKAPKEAFEQP [chain 1 K7A, chain 1 I14A] | -1.1 Z-score of the enrichment rate within one screen of 711 sequences |
| chain 1 SQSKGKKRNPGLCIPKEAFEQP [chain 1 K13C] | -0.0746 Z-score of the enrichment rate within one screen of 711 sequences |
| chain 1 SQSKGKKRNPGLEIPKEAFEQP [chain 1 K13E] | -0.899 Z-score of the enrichment rate within one screen of 711 sequences |
| chain 1 SQSKQKKRNPGLKIPKEAFEQP [chain 1 G5Q] | 1.53 Z-score of the enrichment rate within one screen of 711 sequences |
| chain 1 SQSKAKKRNPGLKIPKEAFEQP [chain 1 G5A] | 1.57 Z-score of the enrichment rate within one screen of 711 sequences |
| chain 1 SQSKDKKRNPGLKIPKEAFEQP [chain 1 G5D] | 0.151 Z-score of the enrichment rate within one screen of 711 sequences |
| chain 1 SQSKCKKRNPGLKIPKEAFEQP [chain 1 G5C] | 1.42 Z-score of the enrichment rate within one screen of 711 sequences |
| chain 1 SQSKVKKRNPGLKIPKEAFEQP [chain 1 G5V] | 1.75 Z-score of the enrichment rate within one screen of 711 sequences |
| chain 1 SQSKLKKRNPGLKIPKEAFEQP [chain 1 G5L] | 4 Z-score of the enrichment rate within one screen of 711 sequences |
| chain 1 SQSKGKKRDPGLKIPKEAFEQP [chain 1 N9D] | 0.0592 Z-score of the enrichment rate within one screen of 711 sequences |
| chain 1 SQSKGKKRRPGLKIPKEAFEQP [chain 1 N9R] | 2.08 Z-score of the enrichment rate within one screen of 711 sequences |
| chain 1 SQSKGKKRLPGLKIPKEAFEQP [chain 1 N9L] | 1.77 Z-score of the enrichment rate within one screen of 711 sequences |
| chain 1 SQSKGKKRYPGLKIPKEAFEQP [chain 1 N9Y] | 1.25 Z-score of the enrichment rate within one screen of 711 sequences |
| chain 1 SQSKGKKRGPGLKIPKEAFEQP [chain 1 N9G] | 1.54 Z-score of the enrichment rate within one screen of 711 sequences |
| chain 1 SQSKGKKRFPGLKIPKEAFEQP [chain 1 N9F] | 1.54 Z-score of the enrichment rate within one screen of 711 sequences |
| chain 1 SQSKGKKRVPGLKIPKEAFEQP [chain 1 N9V] | 0.914 Z-score of the enrichment rate within one screen of 711 sequences |
| chain 1 SQSKGKKRNPGMKIPKEAFEQP [chain 1 L12M] | 0.044 Z-score of the enrichment rate within one screen of 711 sequences |

| Variant | screen value |
| --- | --- |
| chain 1 SQSKGKKRNPGSKIPKEAFEQP [chain 1 L12S] | -1.12 Z-score of the enrichment rate within one screen of 711 sequences |
| chain 1 SQSKGKKRNPGIKIPKEAFEQP [chain 1 L12I] | -0.212 Z-score of the enrichment rate within one screen of 711 sequences |
| chain 1 SQSKGKKRNPGDKIPKEAFEQP [chain 1 L12D] | -1.05 Z-score of the enrichment rate within one screen of 711 sequences |
| chain 1 SQSAGKKRNPGLKIPAEAFEQP [chain 1 K4A, chain 1 K16A] | 0.0782 Z-score of the enrichment rate within one screen of 711 sequences |
| chain 1 SQSKGKKRNPGLKIFKEAFEQP [chain 1 P15F] | 1.25 Z-score of the enrichment rate within one screen of 711 sequences |
| chain 1 SQSKGKKRNPGLKIAKEAFEQP [chain 1 P15A] | 2.82 Z-score of the enrichment rate within one screen of 711 sequences |
| chain 1 SQSKGKKRNPGLKILKEAFEQP [chain 1 P15L] | 1.3 Z-score of the enrichment rate within one screen of 711 sequences |
| chain 1 SQSKGKKRNPGLKIQKEAFEQP [chain 1 P15Q] | 0.909 Z-score of the enrichment rate within one screen of 711 sequences |
| chain 1 SQSKGKKRNPGLKINKEAFEQP [chain 1 P15N] | 2.75 Z-score of the enrichment rate within one screen of 711 sequences |
| chain 1 SQAKGKKRNPGLKAPKEAFEQP [chain 1 S3A, chain 1 I14A] | -0.936 Z-score of the enrichment rate within one screen of 711 sequences |
| chain 1 SQSKGKKRNPAAKIPKEAFEQP [chain 1 G11A, chain 1 L12A] | -0.887 Z-score of the enrichment rate within one screen of 711 sequences |
| chain 1 SQSKGKARNPGLAIPKEAFEQP [chain 1 K7A, chain 1 K13A] | -0.71 Z-score of the enrichment rate within one screen of 711 sequences |
| chain 1 SQSAGKKRNPGAKIPKEAFEQP [chain 1 K4A, chain 1 L12A] | -1.24 Z-score of the enrichment rate within one screen of 711 sequences |
| chain 1 SQSKGKKRNPALAIPKEAFEQP [chain 1 G11A, chain 1 K13A] | -0.412 Z-score of the enrichment rate within one screen of 711 sequences |
| chain 1 SQSKGKKRAPGLKIPAEAFEQP [chain 1 N9A, chain 1 K16A] | 0.162 Z-score of the enrichment rate within one screen of 711 sequences |
| chain 1 SQSKGKKRNPGLKIPYEAFEQP [chain 1 K16Y] | -0.107 Z-score of the enrichment rate within one screen of 711 sequences |
| chain 1 SQSKGKKRNPGLKIPREAFEQP [chain 1 K16R] | 1.75 Z-score of the enrichment rate within one screen of 711 sequences |
| chain 1 SQSKGKKRNPGLKIPEEAFEQP [chain 1 K16E] | -0.612 Z-score of the enrichment rate within one screen of 711 sequences |
| chain 1 SQSKGKKRNPGLKIPCEAFEQP [chain 1 K16C] | 0.392 Z-score of the enrichment rate within one screen of 711 sequences |
| chain 1 SQSKGKKRNPGLKIPWEAFEQP [chain 1 K16W] | 0.661 Z-score of the enrichment rate within one screen of 711 sequences |
| chain 1 SQSKGKKRNPGLKIPMEAFEQP [chain 1 K16M] | 1.69 Z-score of the enrichment rate within one screen of 711 sequences |
| chain 1 SQSKGKKRNPGLKIPVEAFEQP [chain 1 K16V] | 0.706 Z-score of the enrichment rate within one screen of 711 sequences |
| chain 1 SQSKGKKRNAGLKAPKEAFEQP [chain 1 P10A, chain 1 I14A] | -0.954 Z-score of the enrichment rate within one screen of 711 sequences |
| chain 1 SQSKGAARNPGLKIPKEAFEQP [chain 1 K6A, chain 1 K7A] | -0.229 Z-score of the enrichment rate within one screen of 711 sequences |
| chain 1 SQSKGKKANPGLKIAKEAFEQP [chain 1 R8A, chain 1 P15A] | 0.201 Z-score of the enrichment rate within one screen of 711 sequences |
